In PMC10967792:

How the values were obtained:
[1] = target: hCCR7-mNeongreen (CCR7 C-terminally tagged with mNeonGreen) (human) (UniProt P32248)
[2] = target: human CC chemokine receptor 7 (hCCR7), stably expressed (human) (UniProt P32248)

| pEC50 of β-arrestin1 (Arrβ1) recruitment to CCR7 (NanoBRET), CHO-K1 cells [1] | pEC50 of β-arrestin1 (Arrβ1) recruitment to CCR7 (NanoBRET), HEK293A cells [1] | pEC50 of β-arrestin1 (Arrβ1) recruitment to CCR7 (NanoBRET), U87 cells [1] | pEC50 of β-arrestin2 (Arrβ2) recruitment to CCR7 (NanoBRET), CHO-K1 cells [1] | pEC50 of β-arrestin2 (Arrβ2) recruitment to CCR7 (NanoBRET), HEK293A cells [1] | pEC50 of β-arrestin2 (Arrβ2) recruitment to CCR7 (NanoBRET), U87 cells [1] | pEC50 of Gα12 activation (NanoBRET, G protein dissociation), HEK293A cells expressing CCR7 [2] | pEC50 of Gα12 activation (NanoBRET, G protein dissociation), U87 cells expressing CCR7 [2] | pEC50 of Gα13 activation (NanoBRET, G protein dissociation), CHO-K1 cells expressing CCR7 [2] | pEC50 of Gα13 activation (NanoBRET, G protein dissociation), U87 cells expressing CCR7 [2] | pEC50 of Gα15 activation (NanoBRET, G protein dissociation), CHO-K1 cells expressing CCR7 [2] | pEC50 of Gα15 activation (NanoBRET, G protein dissociation), HEK293A cells expressing CCR7 [2] | pEC50 of Gαi1 activation (NanoBRET, G protein dissociation), CHO-K1 cells expressing CCR7 [2] | pEC50 of Gαi1 activation (NanoBRET, G protein dissociation), HEK293A cells expressing CCR7 [2] | pEC50 of Gαi1 activation (NanoBRET, G protein dissociation), U87 cells expressing CCR7 [2] | pEC50 of Gαi2 activation (NanoBRET, G protein dissociation), CHO-K1 cells expressing CCR7 [2] | pEC50 of Gαi2 activation (NanoBRET, G protein dissociation), HEK293A cells expressing CCR7 [2] | pEC50 of Gαi2 activation (NanoBRET, G protein dissociation), U87 cells expressing CCR7 [2] | pEC50 of Gαi3 activation (NanoBRET, G protein dissociation), CHO-K1 cells expressing CCR7 [2] | pEC50 of Gαi3 activation (NanoBRET, G protein dissociation), HEK293A cells expressing CCR7 [2] | Sequence | other results |
| --- | --- | --- | --- | --- | --- | --- | --- | --- | --- | --- | --- | --- | --- | --- | --- | --- | --- | --- | --- | --- | --- |
| 7.92 -log10(M) | 7.46 -log10(M) | 7.86 -log10(M) | 8.11 -log10(M) | 7.57 -log10(M) | 7.86 -log10(M) | 7.44 -log10(M) | 7.81 -log10(M) | 8.87 -log10(M) | 8.77 -log10(M) | 8.91 -log10(M) | 7.8 -log10(M) | 8.54 -log10(M) | 8.63 -log10(M) | 8.28 -log10(M) | 8.69 -log10(M) | 9.03 -log10(M) | 8.56 -log10(M) | 8.84 -log10(M) | 9.61 -log10(M) | CC chemokine ligand 19 (CCL19) (from UniProt Q99731 22-98) | pEC50 of Gαi3 activation (NanoBRET, G protein dissociation), U87 cells expressing CCR7 [2]: 8.87 -log10(M); pEC50 of GαoA activation (NanoBRET, G protein dissociation), CHO-K1 cells expressing CCR7 [2]: 9.37 -log10(M); pEC50 of GαoA activation (NanoBRET, G protein dissociation), HEK293A cells expressing CCR7 [2]: 8.3 -log10(M); pEC50 of GαoA activation (NanoBRET, G protein dissociation), U87 cells expressing CCR7 [2]: 8.59 -log10(M); pEC50 of GαoB activation (NanoBRET, G protein dissociation), CHO-K1 cells expressing CCR7 [2]: 8.96 -log10(M); pEC50 of GαoB activation (NanoBRET, G protein dissociation), HEK293A cells expressing CCR7 [2]: 8.85 -log10(M); pEC50 of GαoB activation (NanoBRET, G protein dissociation), U87 cells expressing CCR7 [2]: 8.8 -log10(M); pEC50 of Gαq activation (NanoBRET, G protein dissociation), CHO-K1 cells expressing CCR7 [2]: 8.77 -log10(M); pEC50 of Gαq activation (NanoBRET, G protein dissociation), U87 cells expressing CCR7 [2]: 8.41 -log10(M); pEC50 of GαsL activation (NanoBRET, G protein dissociation), CHO-K1 cells expressing CCR7 [2]: 8.97 -log10(M); pEC50 of GαsL activation (NanoBRET, G protein dissociation), HEK293A cells expressing CCR7 [2]: 7.49 -log10(M); pEC50 of GαsL activation (NanoBRET, G protein dissociation), U87 cells expressing CCR7 [2]: 8.95 -log10(M); pEC50 of GαsS activation (NanoBRET, G protein dissociation), CHO-K1 cells expressing CCR7 [2]: 8.58 -log10(M); pEC50 of GαsS activation (NanoBRET, G protein dissociation), U87 cells expressing CCR7 [2]: 8.65 -log10(M) |
| 7.52 -log10(M) | 7.15 -log10(M) | 6.9 -log10(M) | 7.69 -log10(M) | 7.02 -log10(M) | 7.01 -log10(M) | 6.79 -log10(M) | 7.5 -log10(M) | 8.53 -log10(M) | 8.7 -log10(M) | 7.56 -log10(M) | 6.74 -log10(M) | 8.37 -log10(M) | 8.47 -log10(M) | 8.02 -log10(M) | 8.91 -log10(M) | 8.76 -log10(M) | 8.27 -log10(M) | 8.84 -log10(M) | 9.33 -log10(M) | CC chemokine ligand 21 (CCL21) (from UniProt O00585 24-134) | pEC50 of Gα12 activation (NanoBRET, G protein dissociation), CHO-K1 cells expressing CCR7 [2]: 7.94 -log10(M); pEC50 of Gαi3 activation (NanoBRET, G protein dissociation), U87 cells expressing CCR7 [2]: 8.6 -log10(M); pEC50 of GαoA activation (NanoBRET, G protein dissociation), CHO-K1 cells expressing CCR7 [2]: 9.27 -log10(M); pEC50 of GαoA activation (NanoBRET, G protein dissociation), HEK293A cells expressing CCR7 [2]: 7.97 -log10(M); pEC50 of GαoA activation (NanoBRET, G protein dissociation), U87 cells expressing CCR7 [2]: 8.33 -log10(M); pEC50 of GαoB activation (NanoBRET, G protein dissociation), CHO-K1 cells expressing CCR7 [2]: 8.97 -log10(M); pEC50 of GαoB activation (NanoBRET, G protein dissociation), HEK293A cells expressing CCR7 [2]: 8.34 -log10(M); pEC50 of GαoB activation (NanoBRET, G protein dissociation), U87 cells expressing CCR7 [2]: 8.45 -log10(M); pEC50 of Gαq activation (NanoBRET, G protein dissociation), CHO-K1 cells expressing CCR7 [2]: 8.45 -log10(M); pEC50 of Gαq activation (NanoBRET, G protein dissociation), U87 cells expressing CCR7 [2]: 8.1 -log10(M); pEC50 of GαsL activation (NanoBRET, G protein dissociation), HEK293A cells expressing CCR7 [2]: 6.79 -log10(M); pEC50 of GαsL activation (NanoBRET, G protein dissociation), U87 cells expressing CCR7 [2]: 8.99 -log10(M); pEC50 of GαsS activation (NanoBRET, G protein dissociation), CHO-K1 cells expressing CCR7 [2]: 8.1 -log10(M); pEC50 of GαsS activation (NanoBRET, G protein dissociation), U87 cells expressing CCR7 [2]: 8.39 -log10(M) |
